{
  "source": "patent US10947504B2",
  "about": "“Method for producing highly functional platelets” (Kyoto University, priority 2015, dated 2021)",
  "molecules": {"B1": {"name": "shHMGA2: shRNA against HMGA2, target sequence SEQ ID NO: 5, shRNA sequence SEQ ID NO: 6, introduced with viral vector (nucleic acid)", "chain": "GATCCCCATGAGACGAAATGCTGATGTATTTCAAGAGAATACATCAGCATTTCGTCTCATTTTTTGGAAAA"}, "B2": {"name": "shRUNX1: shRNA against RUNX1, target sequence SEQ ID NO: 3, shRNA sequence SEQ ID NO: 4 (nucleic acid)", "chain": "GATCCCCACTTTCCAGTCGACTCTCATTCAAGAGATGAGAGTCGACTGGAAAGTTTTTTGGAAAA"}},
  "key": {"[1]": {"system": "immortalized megakaryocytes", "settings": "for synergistic effect on number and function of platelets produced, ROCK inhibitor combined with SR-1: in combination with SR-1, compared with each alone (FIG. 9)", "procedure": "Immortalized megakaryocytes obtained according to the method described in section 1 were washed twice with PBS(−) followed by removing the doxycycline to terminate overexpression, static culturing after disseminating the cells in a 6-well plate at 2 mL/well and a seeding density of 1×10^5 cells/mL, and then shake culturing in an E125 flask at 25 mL/flask and a seeding density of 1×10^5 cells/m L.\nThe medium was obtained by adding the following components to IMDM serving as the basal medium (concentrations indicate final concentrations).\nCulturing was implemented under conditions of 37° C., 5% CO2 and 20% O2. The numbers of platelets and PAC-1 positive cells were measured using the same method as described in the above-mentioned section 2."}, "[2]": {"system": "immortalized megakaryocyte line (SeV2-MKCL)", "procedure": "Culturing was implemented by disseminating the cells at 2 mL/well in a 6-well plate at a seeding concentration of 1×10^5 cells/mL followed by static culturing in the medium indicated below.\nAfter simultaneously adding SR-1 at the concentrations shown in FIG. 1 and culturing for 7 days, the number and function of the platelets were measured. The measurement method was as shown below.\nThe culture supernatant was gently suspended using a 1 mL Pipetman 7 days after culturing to terminate gene expression. 200 μL of the culture broth were dispensed into a 5 mL sample tube followed by staining with the antibodies indicated below.\nMeasurement was carried out using FACS Verse manufactured by Becton Dickinson and Company 30 minutes after the reaction. 400 μL of Tyrode's buffer Ca^+ were added immediately before measurement to bring to a total volume of 600 μL. This total volume of 600 μL was used for the FACS measurement sample.\nThe number of particles positive for CD42a and CD42b were considered to represent the number of platelets, and the ratio of the mean fluorescence intensities (MFI) of PAC-1 and CD62p in this platelet fraction before and after stimulation was calculated."}, "[3]": {"system": "immortalized megakaryocytes", "experiment": "shRNA knockdown in immortalized megakaryocytes during overexpression: number of CD41a-positive cells", "assay_type": "cell-based, human", "settings": "during overexpression of BMI1, c-MYC and BCL-xL (FIG. 17)", "excerpt": "Genes of shRUNX1 with GFP, shHMGA2 with GFP and SCRAMBLE with GFP were introduced into the immortalized megakaryocytes prepared in the above-mentioned section 1 using a viral vector. The cells introduced with the above genes (GFP-positive cells) were then sorted."}, "[4]": {"system": "immortalized megakaryocytes", "experiment": "Electron microscopy of shRNA-introduced megakaryocytes cultured with SR-1 and Y27632", "assay_type": "cell-based, human", "settings": "DOX-free medium containing SR-1 and Y27632 (FIG. 21)", "description": "Cells introduced with genes shRUNX1, shHMGA2 and shSCRAMBLE obtained in section 9 above were cultured in DOX-free megakaryocyte medium containing SR-1 and Y27632 and observed with an electron microscope."}, "[5]": {"system": "immortalized megakaryocytes", "experiment": "shRNA knockdown: multinucleation and platelet production after terminating overexpression of cMYC, BMI1 and BCL-xL", "assay_type": "cell-based, human", "description": "Next, the production of platelets was measured after having terminated overexpression of cMYC, BMI1 and BCL-xL genes using the method described in the aforementioned section 1-5."}},
  "note": "Counter-ions that a name gives are not always drawn. Like-named read-outs stand apart in the source and are kept apart here.",
  "data": [
    {"molecule": "C[C@H]1CNCCCN1S(=O)(=O)c1cccc2cncc(F)c12", "note": "[ripasudil]", "values": [
      {"measurement": "synergistic effect on number and function of platelets produced, ROCK inhibitor combined with SR-1", "setting": "[1]", "result": "concentration-dependent synergistic effects comparable to that of Y27632"}
    ]},
    {"molecule": "O=S(=O)(c1cccc2cnccc12)N1CCCNCC1", "note": "[fasudil hydrochloride]", "values": [
      {"measurement": "synergistic effect on number and function of platelets produced, ROCK inhibitor combined with SR-1", "setting": "[1]; hydrochloride", "result": "concentration-dependent synergistic effects comparable to that of Y27632"}
    ]},
    {"molecule": "C[C@@H](N)c1ccc(C(=O)Nc2ccnc3[nH]ccc23)cc1", "note": "[Y39983]", "values": [
      {"measurement": "synergistic effect on number and function of platelets produced, ROCK inhibitor combined with SR-1", "setting": "[1]", "result": "prominent synergistic effect that exceeded that of Y27632"}
    ]},
    {"molecule": "Cc1ccccc1N=Nc1ccc(NC(=O)c2ccnn2C)c(C)c1", "note": "[CH-223191, 2-methyl-2H-pyrazole-3-carboxylic acid (2-methyl-4-o-tolylazo-phenyl)-amide]", "values": [
      {"measurement": "synergistic effect on number of platelets produced, AhR antagonist combined with Y27632", "setting": "[1]; in combination with Y27632 (FIG. 10)", "result": "prominent synergistic effects that exceeded that of SR-1"}
    ]},
    {"molecule": "CC(C)n1cnc2c(NCCc3ccc(O)cc3)nc(-c3csc4ccccc34)nc21", "note": "[SR-1, 4-(2-(2-(benzo[b]thiophen-3-yl)-9-isopropyl-9H-purin-6-ylamino)ethyl)phenol]", "values": [
      {"measurement": "duration of culturing after which highly functional platelets tend to be obtained", "setting": "[2]; AhR antagonist added after terminating overexpression", "result": 5, "unit": "days"},
      {"measurement": "platelet function", "setting": "[2]; compared with the absence of SR-1 (FIG. 1)", "result": "higher"},
      {"measurement": "number of platelets bound by PAC-1 and anti-CD62p antibody", "setting": "[2]; static culturing 7 days, no feeder cells, addition of SR-1 (FIG. 1)", "result": "confirmed to increase"}
    ]},
    {"molecule": "B1", "values": [
      {"measurement": "number of CD41a-positive cells", "setting": "[3]", "result": "decrease"},
      {"measurement": "cell morphology by electron microscopy", "setting": "[4]", "result": "multinucleated and enlarged cells were observed"},
      {"measurement": "development of demarcation membrane systems (DMS) in the cells", "setting": "[4]", "result": "formation of a DMS and secretory granules was observed"},
      {"measurement": "formation of secretory granules", "setting": "[4]", "result": "formation of a DMS and secretory granules was observed"},
      {"measurement": "number of platelets produced per megakaryocyte", "setting": "[5]; after terminating overexpression (bottom of FIG. 19)", "result": "increase dramatically"},
      {"measurement": "megakaryocyte multinucleation", "setting": "[5]; after terminating overexpression (top of FIG. 19)", "result": "considerable promotion"}
    ]},
    {"molecule": "B2", "values": [
      {"measurement": "number of CD41a-positive cells", "setting": "[3]", "result": "increase"},
      {"measurement": "cell morphology by electron microscopy", "setting": "[4]", "result": "numerous small nucleated cells"},
      {"measurement": "development of demarcation membrane systems (DMS) in the cells", "setting": "[4]", "result": "lacking"},
      {"measurement": "formation of secretory granules", "setting": "[4]", "result": "only be formed to a moderate degree"}
    ]}
  ]
}
